# Results published in patent US20250289896A1 (ANALYTICAL BIOSCIENCES SHANGHAI, published 2025).
# Substitutions are numbered along the chain they refer to. Numbers in names are those of the source.
# T1: mCCR8 (UniProt P56484 1-353, limits assumed)
# T1 construct: whole, on cells; also called 293T-mCCR8
# T1 sequence (looked up): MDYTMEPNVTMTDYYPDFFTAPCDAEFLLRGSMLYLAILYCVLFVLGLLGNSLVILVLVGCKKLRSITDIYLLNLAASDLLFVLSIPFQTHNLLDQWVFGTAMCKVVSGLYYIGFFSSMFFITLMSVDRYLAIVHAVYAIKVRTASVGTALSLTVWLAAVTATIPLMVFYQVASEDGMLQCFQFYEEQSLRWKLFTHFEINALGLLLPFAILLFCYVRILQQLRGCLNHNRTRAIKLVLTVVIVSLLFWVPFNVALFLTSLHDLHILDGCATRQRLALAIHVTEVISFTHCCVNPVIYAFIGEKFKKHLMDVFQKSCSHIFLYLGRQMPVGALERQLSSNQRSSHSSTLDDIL
# B1: ABC137-H2.hu12.IgG1.SDIE (antibody, V domains shown)
# VH: EVQLVESGGGLVQPGGSLRLSCAASGFPFNTFAMNWVRQAPGKGLEWLARIRSKSNNYATYYADSVKDRFTISRDNAKRSLYLQMNSLRAEDTAVYYCVRGKENNYGYAMDYWGQGTTVTVSS
# VL: DIVMTQSPLSLPVTPGEPASISCRSSKSLLHSNGNTYLYWFLQKPGQSPQLLIYRMSNLASGVPDRFSGSGSGTDFTLKISRVEAEDVGVYYCMQHVEYPFTFGGGTKLEIKR
# notes: Parental clone ABC025.H2G.SDIE; IgG1 with SDIE mutations
# B2: H2I (antibody, human IgG1, kappa, V domains shown)
# VH: B1 VH with K78R
# VL: B1 VL with K27Q, G34A, V97L, G105Q
# B3: H2A (antibody, human IgG1, kappa, V domains shown)
# VH: B1 VH with R79N
# VL: B1 VL with K27Q, V97L, G105Q
# B4: ABC051-B1.hu14.IgG1.SDIE (antibody, V domains shown)
# VH: EVQLVESGGGLVQPGGSLKLSCAASGFTFNTYAMNWVRQASGKGLEWVARIRSKSNNYATYYADSVKDRFTISRDDSKNTLYLQMNSLKTEDTAVYYCVREVRRDYALDQWGQGTMVTVSS
# VL: B1 VL with G34A
# notes: IgG1 with SDIE mutations, by its name
# B5: ABC049-B1.hu12.IgG1.SDIE (antibody, V domains shown)
# VH: B4 VH
# VL: B1 VL with N33Q
# notes: as for B4
# B6: ABC050-B1.hu13.IgG1.SDIE (antibody, V domains shown)
# VH: B4 VH
# VL: B1 VL with N33S
# notes: as for B4
# B7: H2B (antibody, human IgG1, kappa, V domains shown)
# VH: B1 VH
# VL: B1 VL with K27Q, V97L, G105Q
# B8: H2C (antibody, human IgG1, kappa, V domains shown)
# VH: B1 VH with K78R
# VL: B1 VL with K27Q, V97L, G105Q
# B9: ABC523 (antibody, human IgG1, kappa, V domains shown)
# VH: EVKLVESGGGLVQPGNSLTLSCVASGFTFSNYGMHWIRQAPKKGLEWIAMIYSDSSKMFYTDTVKGRFTISRDNSKNTLYLEMNSLRSEDTAMYYCAARDYGYKGAHYYVMDAWGQGASVTVSS
# VL: DIQMTQSPSFLSASVGDRVTIICKSSQNINRYLNWYQQKLGEAPKLLIYNANNLQTGIPSRFSGGGSGTDFTFTIGSLRPEDVATYFCLQHKSWPYTFGPGTKLELKR
# B10: ABC519 (antibody, human IgG1, kappa, V domains shown)
# VH: EVHLVESGGGFVRPGRSMKLSCAASGFPFSFYGMAWVLQTPTKGLEWVASISYDGSDTYYRDSVKGRFAISRDNAKNTLYLQMESLRSEDTATFYCAKTSGYGSFDYWGQGTLVTVSS
# VL: DIVMTQSPVSLPVSFGGQASISCRSSRSLVHRNGDTYLHWYLQKPGQSPQLLIYRVSNRFAGVPDRFSGSGSGTDFTLKISRVESEDLGLYYCLQGTHLPPTFGSGTKLEIKR
# B11: ABC816 (antibody, human IgG1, kappa, V domains shown)
# VH: AVQLVESGGGLVQPKESLKISCAASGFTFSNAAMYWVRQAPGKGLEWVARIRTKPNNYATYYADSVKGRFTISRDDSKSMVYLQMDNLKTEDTAMYYCTAAVYSSYGYFDYWGQGVMVTVSS
# VL: DIQMTQSPASLSASLEEIVTITCQASQNNGNWLAWYQQKPGKSPQLLIYGTTNLADGVPSRFSGSRSGTQYSLKISRLQVEDIGIYYCQQASSTPWTFGGGTKLELKR
# B12: ABC814 (antibody, human IgG1, kappa, V domains shown)
# VH: EVQLVESGGGLVQPGRSLKLSCVASGFTFSDYYMAWVRQAPKKGLEWVASISYEGRSTYYGDSVKGRFTISRDDAKSTLYLQMNSLRSEDTATYYCARQDLYYGHKSYWYLDFWGPGTMVTVSS
# VL: DIVMTQSPTSMSISVGDRVTMNCKASQNVGSNVDWYQQKPGQSPKLLIYKTSSRSTGVPDRFTGSGSRTDFTFTITNMQAEDLAVYYCMQSNSYPFTFGAGTKLELKR
# B13: ABC820 (antibody, human IgG1, kappa, V domains shown)
# VH: EVQLVESGGGLVQPGRSLKLSCAASGFTFSDYYMAWVRQAPKKGLEWVASISYEGRSTYYGDSVKGRFTISRDDEKSILYLQMSGPRSEDTATYYCARQDLYYGRNPSWFLDFWGPGTMVTVSS
# VL: IVMTQSPTSMSISVGGRVTMNCKASQNVGSNVDWFQQKTGQSPKLLIYKTTSRYTGVPDRFTGSGSKTDFTFTISNMQAEDLAVYYCLQSNSFPYTFGAGTKLELKR
# B14: ABC531 (antibody, human IgG1, kappa, V domains shown)
# VH: EVQLVESGGGVVQPGGSLRLSCAASGFTFSNYGMHWIRQAPGKGLEWIAMIYSDSSKMFYTDTVKGRFTISRDNSKNTLYLQMNSLRAEDTAVYYCAARDYGYKGAHYYVMDAWGQGTTVTVSS
# VL: DIQMTQSPSSLSASVGDRVTITCKSSQNINRYLNWYQQKPGKAPKLLIYNANNLQTGIPSRFSGSGSGTDFTFTISSLQPEDIATYYCLQHKSWPYTFGQGTKLEIKR
# B15: ABC815 (antibody, human IgG1, kappa, V domains shown)
# VH: VQLVESGGGLVQPGRSLKLSCAASGFTFSNYDMAWVRQVPTKGLEWVASVSPSAGTTYYRDSVKGRFTVSRDIAKSSLYLQMDSLRSEDTATYYCARHMIYRGYNYAVSYYVMDVWGQGASVTVSS
# VL: IQLTQSPSLLSASVGDRVTLTCKGSQNINSYLAWYQQKLGEAPKLLIYNTNSLQTGIPSRFSGSGSGTDYTLTISSLQPEDVATYFCYQYNNGYTWTFGGGTKLELKR
# B16: ABC527 (antibody, human IgG1, kappa, V domains shown)
# VH: EVQLVESGGGVVQPGRSLRLSCAASGFPFSFYGMAWVRQAPGKGLEWVASISYDGSDTYYRDSVKGRFTISRDNSKNTLYLQMNSLRAEDTAVYYCAKTSGYGSFDYWGQGTLVTVSS
# VL: DIVMTQTPLSLSVTPGQPASISCRSSRSLVHRNGDTYLHWYLQKPGQSPQLLIYRVSNRFAGVPDRFSGSGSGTDFTLKISRVEAEDVGVYYCLQGTHLPPTFGQGTKLEIKR
# B17: ABC821 (antibody, human IgG1, kappa, V domains shown)
# VH: EVQLVESGGGLVQPGRSLKLSCVASGFTFNYYWMTWIRQAPGKGLEWVASITNTGDTTYYPDSVKGRFTISRHNAKSTLYLQMNSLRSEDTATYYCSRGDGGSSFWIAYWGQGTLVTVSS
# VL: DVVMTQTPVSLPVSLGGQASISCRSSQSLVHRSGNTYLHWYLQKPGQSPQLLIYRVSNRFSGGPDRFSGSGSGTTFTLKISRVEPEDLGDYYCLQTTHFPPTFGSGTKLEIKR
# B18: ABC819 (antibody, human IgG1, kappa, V domains shown)
# VH: EVQLVESGGGLMQPRRSLKLSCAASGFPFSDYNMAWVRQAPKKGLEWVASITYAGTKTYYGDSVKGRFTISRDDAKSTLYLQMNSLRSEDTATYYCARQDLYYGRNQYWYLDFWGPGTMVTVSS
# VL: DIVMTQSPTSMSKSVGDRVTMSCKASQNVGSNVDWYQQKTGQSPKLLIYKTSSRFTGVPDRFTGSGSRTDFTFTISSMQAEDLALYYCVQSNSYPYTFGAGTKLELRT
# B19: ABC818 (antibody, human IgG1, kappa, V domains shown)
# VH: B18 VH with M12V, R15G, P28T, N33Y, T56S, R105H, Q107P, L111F
# VL: B18 VL with K13I, S22N, S77N, R107K, T108R
# B20: ABC823 (antibody, human IgG1, kappa, V domains shown)
# VH: EVQLVESGGGLVQPRRSLKLSCAASGFTFSDYYMAWVRQAPKKGLEWVASIGYEGSGVYYGDSVKGRFTISRDDAKSSLYLQMNSLRSEDTATYYCARQELYYGHNPYWYFDFWGPGTMVTVSS
# VL: B12 VL with P40T, S55F, R68K, D70A, T72S, T76S, F96Y
# Molecular target: T2, Human CCR8 (C-C chemokine receptor type 8) (human, UniProt P51685 1-355)
# T2 construct: overexpressed on HEK293T (293T-hCCR8), Jurkat-hCCR8 and CHEM1-CCR8 cells; also called hCCR8
# T2 sequence (P51685 whole entry): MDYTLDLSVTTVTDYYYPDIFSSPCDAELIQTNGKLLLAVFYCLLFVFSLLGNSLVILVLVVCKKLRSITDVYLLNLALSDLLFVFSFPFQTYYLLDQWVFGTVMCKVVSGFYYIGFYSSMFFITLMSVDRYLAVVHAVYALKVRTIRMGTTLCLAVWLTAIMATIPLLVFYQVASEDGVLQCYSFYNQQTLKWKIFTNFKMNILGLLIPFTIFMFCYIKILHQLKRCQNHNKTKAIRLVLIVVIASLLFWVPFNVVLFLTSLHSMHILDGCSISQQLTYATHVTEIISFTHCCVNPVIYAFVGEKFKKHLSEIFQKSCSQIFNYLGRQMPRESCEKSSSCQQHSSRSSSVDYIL
# Assay: flow cytometry on cells carrying human CCR8
row,Binder,binding result
1,B1,binds
2,B2,binds
3,B3,binds
4,B4,binds
5,B5,binds
6,B6,binds
7,B7,binds
8,B8,binds

# Molecular target: T2, Human CCR8 (C-C chemokine receptor type …)
# Assay: flow cytometry, Hut78 cells (endogenous human CCR8)
# Method: (§1) Binding specificity of the anti-CCR8 antibodies (mAbs) was tested by FACS using several cell lines. […] The binding titration of the anti-CCR8 antibodies to CCR8 transfectants was performed by serial dilution of antibodies. The diluted antibody (50 μl) in flow cytometry buffer (PBS, 0.5% BSA, 1 mM EDTA) was incubated with cells (50 μl) at a concentration of 2 million cells/ml on ice for 30 min. After two washes with flow cytometry buffer, bound antibody was detected with Alexa647-labeled F(ab′)2 fragment goat anti-human IgG (Jackson ImmunoResearch #709-606-149) (1:500 dilution) for 20 minutes on ice. The fluorescence was measured on a Cytek Aurora cytometer, after two washes with flow cytometry buffer. The data were analyzed with GraphPad Prism 8.0 software to determine EC50 values.
Binder,binding result,EC50 [nM]
B9,no binding,–
B10,no binding,–
B11,no binding,–
B12,–,11.6
B13,–,19.4

# Molecular target: T1, mCCR8
# Assay: flow cytometry, 293T cells with mCCR8
# Method: as §1
Binder,binding result,EC50 [nM]
B14,no binding,–
B9,no binding,–
B15,no binding,–
B16,no binding,–
B10,no binding,–
B17,–,6.74
B18,no binding,–
B11,–,0.133
B12,no binding,–
B19,no binding,–
B20,no binding,–
B13,no binding,–

# Molecular target: T3, cynomolgus macaque CCR8 (cynomolgus macaque, UniProt G7NYJ2 1-355)
# T3 construct: whole, on cells; Overexpressed on 293T cells (293T-cCCR8) and Jurkat cells (Jurkat-cynoCCR8); also called cCCR8; cyno CCR8
# T3 sequence (G7NYJ2 entry or part of it): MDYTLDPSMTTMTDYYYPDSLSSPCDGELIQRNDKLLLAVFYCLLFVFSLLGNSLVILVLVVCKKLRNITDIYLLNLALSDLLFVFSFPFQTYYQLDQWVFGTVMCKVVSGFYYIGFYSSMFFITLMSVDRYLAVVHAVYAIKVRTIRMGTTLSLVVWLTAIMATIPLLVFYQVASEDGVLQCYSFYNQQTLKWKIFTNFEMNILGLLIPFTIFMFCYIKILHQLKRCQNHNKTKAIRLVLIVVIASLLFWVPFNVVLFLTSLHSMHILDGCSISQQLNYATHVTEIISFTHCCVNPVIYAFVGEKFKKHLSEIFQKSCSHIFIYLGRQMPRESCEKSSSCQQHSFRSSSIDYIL
# Assay: flow cytometry, 293T cells overexpressing cynomolgus CCR8
# Method: as §1
Binder,EC50 [nM],binding result
B14,0.554,–
B9,0.26,–
B15,6.47,–
B16,2.14,–
B10,0.25,–
B17,–,no binding
B18,7.11,–
B11,–,no binding
B12,0.101,–
B19,0.537,–
B20,0.884,–
B13,0.09,–

# Molecular target: T2, Human CCR8 (C-C chemokine receptor type …)
# Assay: flow cytometry, 293T cells overexpressing human CCR8
# Method: as §1
Binder,EC50 [nM],binding result
B14,1.44,–
B15,6.47,–
B16,1.74,–
B17,–,no binding
B18,8.51,–
B12,0.0828,–
B19,0.744,–
B20,1.51,–
B13,0.103,–
